From patent US20230398116A1, “Agent for reversing resistance to anticancer drugs” (Y'S AC CO., LTD., priority 2020, published 2023) come the findings set out here.

The target of test [1] is T1, recombinant human IL-26/AK155 monomer, Cat #1375-IL/CF, R&D Systems (human, UniProt Q9NPH9 22-171).
T1 construct: also called recombinant human IL-26 monomer
T1 sequence (looked up): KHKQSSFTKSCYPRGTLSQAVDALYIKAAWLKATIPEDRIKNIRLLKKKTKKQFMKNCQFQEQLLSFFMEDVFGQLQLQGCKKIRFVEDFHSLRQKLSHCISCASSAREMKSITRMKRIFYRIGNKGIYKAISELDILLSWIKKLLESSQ
Briefly: ELISA, human IL-26 monomer coated at 0.5 µg/ml, antibody diluted 2-fold from 5 µg/ml, HRP anti-mouse kappa detection. How it is done: The antigen binding of purified Ch69-10-IgG1, Hu69-10A-IgG1, and Hu69-10B-IgG1 was analyzed by ELISA. ELISA plates were coated overnight at 4° C. with the addition of 0.5 μg/ml human IL-26 (recombinant human IL-26/AK155 monomer, Cat #1375-IL/CF, R&D Systems, Minneapolis, MN) at 100 μl/well in 0.2 M sodium carbonate buffer (pH 9.4). Wells were washed with the wash buffer and blocked with the ELISA buffer. Subsequently, 100 μl/well of test antibody (mouse 69-10, Ch69-10-IgG1, Hu69-10A-IgG1, or Hu69-10B-IgG1) serially diluted 2-fold in RPMI medium starting at 5 μg/ml was added to measure a binding with IL-26. After incubation at room temperature for 1 hour and washing the plates with a wash buffer, a 1/2,000-diluted HRP-conjugated goat anti-human kappa chain polyclonal antibody (Bethyl Laboratories) (for Ch69-10-IgG1, Hu69-10A-IgG1 and Hu69-10B-IgG1) or a 1/2,000-diluted HRP-labeled goat anti-mouse kappa chain polyclonal antibody (Bethyl Laboratories) (for mouse 69-10) in ELISA buffer was added at 100 μl/well to detect bound antibodies. After incubation at room temperature for 30 min and washing with the wash buffer, 100 μl/well of ABTS substrate (Sigma Aldrich) was added to start color development and 100 μl/well of 2% oxalic acid was added to stop the color development. The absorbance was measured at 405 nm.

Test [2] has as its target T2, human EphA3 on the surface of HCC70 cells (human, UniProt P29320 21-983).
T2 construct: whole, on cells; Endogenous receptor on HCC70 cells; also called cell surface EphA3; EphA3 receptor
T2 sequence (looked up): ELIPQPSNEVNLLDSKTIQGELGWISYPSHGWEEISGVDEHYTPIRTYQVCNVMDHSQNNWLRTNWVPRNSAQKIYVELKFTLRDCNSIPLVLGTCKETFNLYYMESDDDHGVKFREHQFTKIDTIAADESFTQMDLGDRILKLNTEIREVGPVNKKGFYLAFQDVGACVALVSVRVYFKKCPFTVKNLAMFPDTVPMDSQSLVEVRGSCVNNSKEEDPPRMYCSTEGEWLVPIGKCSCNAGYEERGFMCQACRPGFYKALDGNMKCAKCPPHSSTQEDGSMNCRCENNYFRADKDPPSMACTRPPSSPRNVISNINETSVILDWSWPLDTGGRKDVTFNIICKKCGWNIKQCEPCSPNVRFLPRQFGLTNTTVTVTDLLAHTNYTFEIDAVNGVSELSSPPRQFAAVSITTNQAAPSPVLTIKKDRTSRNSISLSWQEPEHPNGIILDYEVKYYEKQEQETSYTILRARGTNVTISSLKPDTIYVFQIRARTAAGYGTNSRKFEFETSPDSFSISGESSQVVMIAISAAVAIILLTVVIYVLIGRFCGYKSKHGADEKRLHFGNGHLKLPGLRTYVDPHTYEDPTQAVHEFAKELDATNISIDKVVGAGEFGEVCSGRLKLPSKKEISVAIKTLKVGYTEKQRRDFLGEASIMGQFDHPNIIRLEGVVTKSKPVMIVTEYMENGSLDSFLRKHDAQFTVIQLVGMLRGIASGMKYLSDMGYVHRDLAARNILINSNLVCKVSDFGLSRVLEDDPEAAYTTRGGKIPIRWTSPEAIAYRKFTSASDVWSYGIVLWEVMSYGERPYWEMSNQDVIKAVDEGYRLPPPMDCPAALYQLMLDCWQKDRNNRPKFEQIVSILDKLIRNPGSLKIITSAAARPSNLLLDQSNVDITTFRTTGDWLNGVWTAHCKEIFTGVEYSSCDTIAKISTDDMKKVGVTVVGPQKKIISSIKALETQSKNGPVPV
Briefly: immunofluorescence colocalization on HCC70 cells (FIG. 21). As to the method:
IL-26 merged with EphA3 on the cell surface. […] Original magnification 200×. Scale bar=20 μm. Representative images of three independent experiments with similar results are shown.
(§1) E0771 and HCC70 cells (1×10⁵) were cultured for 24 hours in RPMI1640 medium with 10% FCS on Lab-Tek chamber slides (Thermo Fisher Scientific). The cultured cells were stimulated with Alexa Fluor 488 labeled IL-26 (30 ng/ml) in the presence or absence of recombinant human and mouse EphA3-Ig for 1 hour. HCC70 cells were stimulated with IL-26 (30 ng/ml) in the presence or absence of gefitinib (40 μM), a signal inhibitor, and a neutralizing antibody for 24 hours. Subcutaneous tumor samples obtained from mice were fixed in 4% paraformaldehyde (Thermo Fisher Scientific) and embedded in OCT compound (Tissue-Tek (registered trademark), Sakura Finetek, Japan). Cells and slides were immunostained with each antibody and observed using a Zeiss inverted microscope and Axiovision 2.0 program (Carl Zeiss, Germany). The fluorescence intensity was quantified with Image-J software (NIH). The images were captured using a 100×400× objective.

Test [3] has as its target T3, mouse EphA3 on the surface of E0771 cells (mouse, UniProt P29319 21-983).
T3 construct: whole, on cells; Endogenous receptor on E0771 cells; also called cell surface EphA3; EphA3 receptor
T3 sequence (looked up): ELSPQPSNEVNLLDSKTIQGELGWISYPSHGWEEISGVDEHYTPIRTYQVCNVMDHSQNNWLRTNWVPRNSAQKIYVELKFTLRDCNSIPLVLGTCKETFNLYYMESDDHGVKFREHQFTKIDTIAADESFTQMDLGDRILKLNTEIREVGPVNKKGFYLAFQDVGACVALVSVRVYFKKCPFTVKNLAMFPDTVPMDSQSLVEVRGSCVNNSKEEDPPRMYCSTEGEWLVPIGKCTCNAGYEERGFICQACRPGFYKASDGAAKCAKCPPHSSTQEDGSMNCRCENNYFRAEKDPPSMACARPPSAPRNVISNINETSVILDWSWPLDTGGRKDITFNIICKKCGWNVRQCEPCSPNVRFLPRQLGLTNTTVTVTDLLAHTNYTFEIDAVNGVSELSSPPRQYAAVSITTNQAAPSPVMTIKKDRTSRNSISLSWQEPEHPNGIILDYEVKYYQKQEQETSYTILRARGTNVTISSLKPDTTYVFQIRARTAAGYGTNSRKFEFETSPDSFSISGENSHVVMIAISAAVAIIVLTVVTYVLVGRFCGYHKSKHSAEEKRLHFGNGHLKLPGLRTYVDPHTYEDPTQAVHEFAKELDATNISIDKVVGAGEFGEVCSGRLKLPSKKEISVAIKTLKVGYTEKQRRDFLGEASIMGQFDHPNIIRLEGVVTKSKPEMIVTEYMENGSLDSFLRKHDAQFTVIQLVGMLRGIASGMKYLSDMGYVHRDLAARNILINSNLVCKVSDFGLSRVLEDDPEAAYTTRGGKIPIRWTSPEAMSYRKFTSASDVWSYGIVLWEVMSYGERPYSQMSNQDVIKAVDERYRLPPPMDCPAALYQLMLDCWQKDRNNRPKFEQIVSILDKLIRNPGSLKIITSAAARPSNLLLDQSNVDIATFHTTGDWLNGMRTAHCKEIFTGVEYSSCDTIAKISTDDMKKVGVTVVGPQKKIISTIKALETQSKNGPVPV
Briefly: 2.5D fluorescence intensity plot of stained E0771 cells (FIG. 18). As to the method: 2.5D intensity plot of EphA3, IL-26, and DAPI signals represents the absolute signal intensity of each pixel. Merged views and individual channels were shown. […] These images show EphA3/IL-26 interaction in E0771 cells. 200×. A representative image of five independent experiments showing similar results is shown.
as §1

B1: mouse anti-human IL-26 monoclonal antibody clone 69-10 (antibody, V domains shown)
VH: QVTLKESGPGILKPSQTLSLTCSFSGFSLSTSGMGVGWIRQPSGKGLEWLAHIWWDDDKYYNPSLKSQLTISKDTSRNQVFLKITSVDTADTATYYCVRGGITATHYYAMDYWGQGTSVTVSS
VL: DIQMTQSPASQSASLGESVTISCLASQTIGTWLSWYQQKPGKSPQLLIYAATSLADGVPSRFSGSGSGTKFSFKISSLQAEDFVSYYCQQLYSSPWTFGGGTKLEIK
notes: Mouse antibody from a hybridoma; also called mouse 69-10; m69-10
By EC50 is commonly meant the concentration needed to bring the measured effect to its halfway point. Turning to B1, in test [1], the EC50 worked out at 0.34 µg/mL.

B2: Recombinant human IL-26 dimer (R&D Systems) (ligand, UniProt Q9NPH9 22-171, looked up)
chain: KHKQSSFTKSCYPRGTLSQAVDALYIKAAWLKATIPEDRIKNIRLLKKKTKKQFMKNCQFQEQLLSFFMEDVFGQLQLQGCKKIRFVEDFHSLRQKLSHCISCASSAREMKSITRMKRIFYRIGNKGIYKAISELDILLSWIKKLLESSQ
notes: Bought from R&D Systems and used for cell stimulation; For the immunofluorescence experiments it was labeled with Alexa Fluor 488 (rhIL-26-Alexa 488); also called exogenous IL-26; rhIL-26-Alexa 488
Regarding B2, the binding result in test [2] and in test [3] was “binds” in each case.
